No end group written: not given here.
Experiments:
Test in all cases: Kinase Profiling Assay
Format in all cases: biochemical
Settings in all cases: peptide 100 μM
EphA2(h) = EphA2(h) (Homo sapiens, UniProt P29317)
In short: (§1)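 Scintillation counting quantifies radiolabeled, positively charged substrate retained on a negatively charged filter after kinase reaction with labeled ATP; inhibitor peptide present.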

EphB1(h) = target: T1, EphB1(h) (Homo sapiens, UniProt P54762)
T1 sequence (P54762 18-984): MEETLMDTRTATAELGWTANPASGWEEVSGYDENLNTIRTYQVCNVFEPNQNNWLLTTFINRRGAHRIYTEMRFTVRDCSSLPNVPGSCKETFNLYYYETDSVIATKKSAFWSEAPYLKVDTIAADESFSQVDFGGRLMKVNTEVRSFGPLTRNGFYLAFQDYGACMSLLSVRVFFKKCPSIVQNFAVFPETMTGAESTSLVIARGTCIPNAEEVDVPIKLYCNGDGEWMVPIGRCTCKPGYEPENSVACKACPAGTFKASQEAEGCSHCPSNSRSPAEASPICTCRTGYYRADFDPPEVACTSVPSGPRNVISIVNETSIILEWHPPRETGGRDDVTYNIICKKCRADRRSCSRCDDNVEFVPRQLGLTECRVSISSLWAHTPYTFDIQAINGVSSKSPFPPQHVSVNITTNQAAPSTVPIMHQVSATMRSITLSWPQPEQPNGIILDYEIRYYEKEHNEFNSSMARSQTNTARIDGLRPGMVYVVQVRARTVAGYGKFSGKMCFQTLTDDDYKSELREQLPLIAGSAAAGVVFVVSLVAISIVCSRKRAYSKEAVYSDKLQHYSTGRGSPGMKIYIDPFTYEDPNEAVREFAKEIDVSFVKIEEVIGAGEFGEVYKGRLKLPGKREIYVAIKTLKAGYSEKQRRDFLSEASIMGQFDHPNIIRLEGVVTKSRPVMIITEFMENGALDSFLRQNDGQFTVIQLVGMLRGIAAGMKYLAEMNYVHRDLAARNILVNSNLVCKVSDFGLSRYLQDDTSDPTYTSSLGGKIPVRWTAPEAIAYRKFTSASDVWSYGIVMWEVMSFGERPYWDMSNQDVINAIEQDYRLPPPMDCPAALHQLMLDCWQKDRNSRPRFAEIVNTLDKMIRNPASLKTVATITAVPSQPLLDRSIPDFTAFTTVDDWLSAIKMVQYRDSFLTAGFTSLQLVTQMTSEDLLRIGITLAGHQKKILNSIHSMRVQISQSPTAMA
In short: as §1

Flt3(h) = Flt3(h) (Homo sapiens, UniProt P36888)
In short: as §1

MSK2(h) = target: T2, MSK2(h) (Homo sapiens, UniProt O75676)
T2 construct: purchased Millipore
T2 sequence (O75676 whole entry): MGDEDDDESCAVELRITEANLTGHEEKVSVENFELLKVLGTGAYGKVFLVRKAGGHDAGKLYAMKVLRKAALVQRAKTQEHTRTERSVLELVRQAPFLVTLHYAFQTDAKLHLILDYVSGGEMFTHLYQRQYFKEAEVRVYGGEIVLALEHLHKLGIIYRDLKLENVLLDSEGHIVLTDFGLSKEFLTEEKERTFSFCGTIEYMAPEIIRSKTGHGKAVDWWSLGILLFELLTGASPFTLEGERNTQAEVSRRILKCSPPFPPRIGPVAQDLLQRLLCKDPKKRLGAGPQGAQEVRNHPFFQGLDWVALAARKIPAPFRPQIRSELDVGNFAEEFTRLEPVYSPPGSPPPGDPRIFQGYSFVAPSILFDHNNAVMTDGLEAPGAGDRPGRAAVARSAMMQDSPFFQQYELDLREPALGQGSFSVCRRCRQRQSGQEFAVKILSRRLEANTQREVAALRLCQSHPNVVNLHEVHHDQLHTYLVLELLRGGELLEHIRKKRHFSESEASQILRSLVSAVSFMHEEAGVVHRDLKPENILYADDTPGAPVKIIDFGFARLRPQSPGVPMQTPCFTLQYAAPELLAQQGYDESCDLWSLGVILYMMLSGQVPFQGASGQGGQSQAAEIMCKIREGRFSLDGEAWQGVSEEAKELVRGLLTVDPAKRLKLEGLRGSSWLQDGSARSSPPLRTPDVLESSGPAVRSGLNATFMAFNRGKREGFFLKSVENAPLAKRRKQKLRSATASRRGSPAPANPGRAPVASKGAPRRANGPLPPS
In short: as §1

MST1(h) = target: T3, MST1(h) (Homo sapiens, UniProt Q13043)
T3 construct: purchased Millipore
T3 sequence (Q13043 1-487): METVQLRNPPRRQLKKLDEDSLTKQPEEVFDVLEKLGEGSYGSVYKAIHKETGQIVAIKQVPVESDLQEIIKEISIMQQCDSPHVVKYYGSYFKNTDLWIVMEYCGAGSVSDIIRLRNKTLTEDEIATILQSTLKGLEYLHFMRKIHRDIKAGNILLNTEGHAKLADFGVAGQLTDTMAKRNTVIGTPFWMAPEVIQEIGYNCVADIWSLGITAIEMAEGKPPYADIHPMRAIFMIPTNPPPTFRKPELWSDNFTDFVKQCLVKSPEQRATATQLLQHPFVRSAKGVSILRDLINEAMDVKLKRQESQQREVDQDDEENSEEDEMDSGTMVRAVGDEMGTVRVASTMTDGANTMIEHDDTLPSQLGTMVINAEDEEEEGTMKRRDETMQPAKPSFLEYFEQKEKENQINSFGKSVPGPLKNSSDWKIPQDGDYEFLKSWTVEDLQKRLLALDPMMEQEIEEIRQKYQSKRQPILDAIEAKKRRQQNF
In short: as §1

PKCθ(h) = PKCθ(h) (Homo sapiens, UniProt Q04759)
PKCθ(h), sequence (Q04759 whole entry): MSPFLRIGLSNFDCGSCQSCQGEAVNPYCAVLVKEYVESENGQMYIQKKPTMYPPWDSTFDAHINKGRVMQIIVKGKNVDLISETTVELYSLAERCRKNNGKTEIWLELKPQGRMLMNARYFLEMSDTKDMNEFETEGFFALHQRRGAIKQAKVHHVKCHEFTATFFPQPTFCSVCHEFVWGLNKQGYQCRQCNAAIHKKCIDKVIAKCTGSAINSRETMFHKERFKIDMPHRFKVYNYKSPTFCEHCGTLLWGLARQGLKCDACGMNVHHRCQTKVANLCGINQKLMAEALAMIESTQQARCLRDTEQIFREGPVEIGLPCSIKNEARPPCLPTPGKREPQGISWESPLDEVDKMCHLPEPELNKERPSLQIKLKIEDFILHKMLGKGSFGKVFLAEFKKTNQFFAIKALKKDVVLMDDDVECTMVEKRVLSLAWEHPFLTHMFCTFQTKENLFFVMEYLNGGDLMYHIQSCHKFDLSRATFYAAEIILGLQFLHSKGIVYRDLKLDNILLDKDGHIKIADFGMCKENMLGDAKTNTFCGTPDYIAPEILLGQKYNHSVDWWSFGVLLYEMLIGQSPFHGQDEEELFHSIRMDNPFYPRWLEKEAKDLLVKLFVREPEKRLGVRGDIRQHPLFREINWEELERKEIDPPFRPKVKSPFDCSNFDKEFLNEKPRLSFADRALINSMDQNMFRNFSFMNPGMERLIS
In short: as §1

Pim-2(h) = Pim-2(h) (Homo sapiens, UniProt Q9P1W9)
Pim-2(h), sequence (Q9P1W9 whole entry): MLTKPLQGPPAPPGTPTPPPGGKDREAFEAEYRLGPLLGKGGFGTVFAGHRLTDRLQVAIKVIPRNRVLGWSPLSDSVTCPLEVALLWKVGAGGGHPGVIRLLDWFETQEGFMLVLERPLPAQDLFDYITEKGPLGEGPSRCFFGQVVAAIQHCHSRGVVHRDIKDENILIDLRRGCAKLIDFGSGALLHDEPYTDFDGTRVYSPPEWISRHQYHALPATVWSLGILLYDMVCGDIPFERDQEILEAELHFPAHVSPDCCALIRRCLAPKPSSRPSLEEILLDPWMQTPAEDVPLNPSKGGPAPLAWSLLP
In short: as §1

Ret(V804L)(h) = Ret(V804L)(h) (Homo sapiens, UniProt P07949, V804L)
In short: as §1

Flt3(D835Y)(h) = Flt3(D835Y)(h) (Homo sapiens, UniProt P36888, D835Y)
In short: as §1

IKKα(h) = target: T4, IKKα(h) (Homo sapiens, UniProt O15111)
T4 construct: purchased Millipore
T4 sequence (O15111 1-745): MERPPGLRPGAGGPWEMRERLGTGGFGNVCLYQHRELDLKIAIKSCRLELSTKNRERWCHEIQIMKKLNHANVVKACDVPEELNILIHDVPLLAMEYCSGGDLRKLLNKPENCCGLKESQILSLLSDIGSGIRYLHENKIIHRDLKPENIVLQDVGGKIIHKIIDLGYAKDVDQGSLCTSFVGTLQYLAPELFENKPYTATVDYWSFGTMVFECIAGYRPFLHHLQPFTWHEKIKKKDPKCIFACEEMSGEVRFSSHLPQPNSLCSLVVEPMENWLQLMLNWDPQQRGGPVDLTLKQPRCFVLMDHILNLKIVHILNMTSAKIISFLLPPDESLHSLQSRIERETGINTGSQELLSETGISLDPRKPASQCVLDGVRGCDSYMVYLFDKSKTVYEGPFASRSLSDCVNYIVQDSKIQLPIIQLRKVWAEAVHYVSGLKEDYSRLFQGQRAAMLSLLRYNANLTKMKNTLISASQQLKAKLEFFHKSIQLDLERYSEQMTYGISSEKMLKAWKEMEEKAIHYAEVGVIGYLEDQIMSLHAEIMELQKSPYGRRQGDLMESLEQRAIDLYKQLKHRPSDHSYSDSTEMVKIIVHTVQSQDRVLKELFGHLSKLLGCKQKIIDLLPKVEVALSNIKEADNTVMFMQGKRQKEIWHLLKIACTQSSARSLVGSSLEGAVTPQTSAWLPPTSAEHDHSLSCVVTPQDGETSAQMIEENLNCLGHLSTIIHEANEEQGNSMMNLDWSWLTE
In short: as §1

Row | Sequence | % activity (EphA2(h)) | % activity (EphB1(h)) | % activity (Flt3(h)) | % activity (MSK2(h)) | % activity (MST1(h)) | % activity (PKCθ(h)) | % activity (Pim-2(h)) | % activity (Ret(V804L)(h)) | % activity (Flt3(D835Y)(h)) | % activity (IKKα(h))
1 | YARAAARQARAKALNRQLGVA (Mammal) [MMI-0200] | 95% | 95% | 99% | 88% | 72% | 101% | 74% | 100% |  | 
2 | YARAAARQARAKALARQLGVAA [MMI-0100] |  | 99% |  |  |  |  |  |  | 120% | 108%
3 | HRRIKAWLKKIKALARQLGVAA (Mammal) [MMI-0500] |  | 37% | 17% | 14% | 3% | 62% | 46% | 20% | 65% | 50%
4 | KAFAKLAARLYRKALARQLGVAA [MMI-0400] | 17% | 58% | 18% | 52% | 6% | 76% | 92% | 73% | 71% | 87%
5 | FAKLAARLYRKALARQLGVAA [MMI-0300] | 31% | 44% | 84% | 56% | 14% | 88% | 76% | 79% | 80% | 93%

Reference: patent US20150258192A1, “COMPOSITIONS AND METHODS FOR PREVENTING OR TREATING CHRONIC LUNG ALLOGRAFT DYSFUNCTION (CLAD) AND IDIOPATHIC PULMONARY FIBROSIS (IPF)” (priority 2014, published 2015)
